According to patent US20140004175A1 (COMPUGEN, published 2014):

T1: recombinant human Ang1 carrier-free (R&D Systems, Cat#923-AN-025/CF) (human, UniProt Q15389 20-498, limits assumed)
T1 construct: Bought recombinant protein; also called angiopoietin 1
T1 sequence: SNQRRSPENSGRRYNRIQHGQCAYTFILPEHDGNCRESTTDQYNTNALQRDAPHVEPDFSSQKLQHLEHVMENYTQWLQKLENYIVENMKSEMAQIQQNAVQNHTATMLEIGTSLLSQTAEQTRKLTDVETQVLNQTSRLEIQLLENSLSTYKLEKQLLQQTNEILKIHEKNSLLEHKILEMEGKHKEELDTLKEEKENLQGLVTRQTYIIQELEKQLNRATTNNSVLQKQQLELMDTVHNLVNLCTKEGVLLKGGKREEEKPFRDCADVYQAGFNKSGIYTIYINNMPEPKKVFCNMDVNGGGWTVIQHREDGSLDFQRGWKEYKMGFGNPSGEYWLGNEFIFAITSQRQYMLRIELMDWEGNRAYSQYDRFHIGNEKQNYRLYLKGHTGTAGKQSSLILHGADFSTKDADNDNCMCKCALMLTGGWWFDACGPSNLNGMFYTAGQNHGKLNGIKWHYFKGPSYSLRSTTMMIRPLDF

T2: recombinant human Ang2 carrier-free (R&D Systems, Cat#623-AN-025/CF) (human, UniProt O15123 19-496)
T2 construct: Bought recombinant protein; also called angiopoietin 2
T2 sequence: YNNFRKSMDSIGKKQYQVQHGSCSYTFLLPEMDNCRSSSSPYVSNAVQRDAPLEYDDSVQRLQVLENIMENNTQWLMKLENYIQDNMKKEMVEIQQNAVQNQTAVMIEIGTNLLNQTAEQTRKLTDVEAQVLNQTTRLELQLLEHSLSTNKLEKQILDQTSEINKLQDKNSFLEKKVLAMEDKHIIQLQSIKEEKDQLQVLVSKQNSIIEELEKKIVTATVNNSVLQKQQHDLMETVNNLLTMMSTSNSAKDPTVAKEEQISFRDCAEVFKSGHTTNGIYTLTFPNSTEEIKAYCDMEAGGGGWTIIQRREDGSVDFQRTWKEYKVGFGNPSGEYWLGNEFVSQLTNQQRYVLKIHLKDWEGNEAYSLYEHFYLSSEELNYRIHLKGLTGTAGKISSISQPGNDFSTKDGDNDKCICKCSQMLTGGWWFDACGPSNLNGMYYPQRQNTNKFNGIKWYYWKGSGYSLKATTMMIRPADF

T3: recombinant human Ang4 carrier-free (R&D Systems, Cat#964-AN-025/CF) (human, UniProt Q9Y264 25-503, limits assumed)
T3 construct: Bought recombinant protein; also called angiopoietin 4
T3 sequence: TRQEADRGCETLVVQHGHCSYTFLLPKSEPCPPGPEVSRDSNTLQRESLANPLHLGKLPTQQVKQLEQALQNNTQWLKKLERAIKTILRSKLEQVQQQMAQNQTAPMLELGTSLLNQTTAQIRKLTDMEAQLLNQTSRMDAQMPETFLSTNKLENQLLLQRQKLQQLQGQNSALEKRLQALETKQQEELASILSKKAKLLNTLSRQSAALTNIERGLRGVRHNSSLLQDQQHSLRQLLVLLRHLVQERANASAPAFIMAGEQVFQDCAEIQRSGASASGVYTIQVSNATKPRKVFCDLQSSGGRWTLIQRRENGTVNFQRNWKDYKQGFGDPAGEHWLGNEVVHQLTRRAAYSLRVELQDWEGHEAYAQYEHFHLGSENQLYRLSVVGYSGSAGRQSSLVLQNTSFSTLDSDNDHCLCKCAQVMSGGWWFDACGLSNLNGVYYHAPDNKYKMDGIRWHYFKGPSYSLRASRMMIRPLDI


Experiments:
[1] = molecular target: T1, recombinant human Ang1 carrier-free …; test: SPR competition (BIAcore), Tie-2/Fc immobilised; Ang1 100-500 nM with peptide 10-50 µM at 1:100
Method: Peptide-protein interaction was analyzed using surface plasmon resonance. Analysis of is the interaction between CGEN-G6 [SEQ ID NO: 6], CGEN-F9 [SEQ ID NO: 7], CGEN-C6 [SEQ ID NO: 9], CGEN-A11 [SEQ ID NO: 10], and CGEN-G2 [SEQ ID NO: 11] peptides and recombinant human Tie-2/Fc chimera (carrier-free, R&D Systems, Cat#313-TI, Lot#BKC0707121) was conducted using the BIAcore biosensor (Pharmacia Biosensor, Uppsala, Sweden). The recombinant Tie-2/Fc chimera was immobilized directly to a CM5 sensor chip. Solutions containing 10-50 μM of CGEN-G6 [SEQ ID NO: 6], CGEN-F9 [SEQ ID NO: 7], CGEN-C6 [SEQ ID NO: 9], CGEN-A11 [SEQ ID NO: 10], and CGEN-G2 [SEQ ID NO: 11] were injected into the sample chamber of the BIACORE device at a rate of 20 μl/min and the interaction was monitored using surface plasmon resonance. In addition, solutions containing 100-500 nM of Ang1, Ang2, and Ang4 proteins were injected alone or in combination with 10-50 μM of CGEN-G6 [SEQ ID NO: 6], CGEN-F9 [SEQ ID NO: 7], CGEN-C6 [SEQ ID NO: 9], CGEN-A11 [SEQ ID NO: 10], and CGEN-G2 [SEQ ID NO: 11] peptides at a constant ratio of 1:100 (Ang ligand to peptide) into the sample chamber of the BIACORE device at a rate of 20 μl/min and the interaction was monitored using surface plasmon resonance.
Binding of Ang2 to Tie2 was reduced by 91-100% after incubation with CGEN-G6 [SEQ ID NO: 6] and CGEN-C6 [SEQ ID NO: 9], and to a lesser extent after incubation with CGEN-A11 [SEQ ID NO: 10] and CGEN-F9 [SEQ ID NO: 7] peptides (FIG. 5B). […] Binding of peptides alone to Tie2 was negligible in most cases.

[2] = molecular target: T2, recombinant human Ang2 carrier-free …; test: SPR (BIAcore), Ang2 immobilised on CM5, peptide 25-1.56 µM, 1:1 Langmuir fit
Method: (§1) Peptide-protein binding was analyzed using surface plasmon resonance. […] Solutions containing 10-50 μM of CGEN-H2 [SEQ ID NO: 1], CGEN-H3 [SEQ ID NO: 2], CGEN-A8 [SEQ ID NO: 3], CGEN-H7 [SEQ ID NO: 4], CGEN-G4 [SEQ ID NO: 5], CGEN-G6 [SEQ ID NO: 6], CGEN-F9 [SEQ ID NO: 7], CGEN-F12 [SEQ ID NO: 8], CGEN-C6 [SEQ ID NO: 9], CGEN-A11 [SEQ ID NO: 10], and CGEN-G2 [SEQ ID NO: 11] peptides were injected into the sample chamber of the BIACORE device at a rate of […] and the interaction was monitored using surface plasmon resonance. […]
(§2) Peptides CGEN-G6 [SEQ ID NO: 6], CGEN-F9 [SEQ ID NO: 7], CGEN-F12 [SEQ ID NO: 8], CGEN-A11 [SEQ ID NO: 10], and CGEN-G2 [SEQ ID NO: 11] were capable of binding to immobilized Ang1, Ang2, and Ang4 on the chip and were further analyzed for binding kinetics, as follows. Solutions containing different concentrations of CGEN-G6 [SEQ ID NO: 6], CGEN-F9 [SEQ ID NO: 7], CGEN-F12 [SEQ ID NO: 8], CGEN-A11 [SEQ ID NO: 10], and CGEN-G2 [SEQ ID NO: 11] peptides (as indicated in Table 2) were injected into the sample chamber of the BIACORE device at a rate of […] and the interaction was monitored using surface plasmon resonance.

[3] = molecular target: T3, recombinant human Ang4 carrier-free …; test: SPR (BIAcore), Ang4 immobilised on CM5, peptide 25-1.56 µM, 1:1 Langmuir fit
Method: as §1, §2

[4] = molecular target: T1, recombinant human Ang1 carrier-free …; test: SPR (BIAcore), Ang1 immobilised on CM5, peptide 25-1.56 µM, 1:1 Langmuir fit
Method: as §1, §2

[5] = molecular target: T1, recombinant human Ang1 carrier-free …; test: SPR (BIAcore), Ang1 immobilised on CM5, peptide 0.625-0.039 µM, 1:1 Langmuir fit
Method: as §1, §2

[6] = molecular target: T2, recombinant human Ang2 carrier-free …; test: SPR (BIAcore), Ang2 immobilised on CM5, peptide 0.625-0.039 µM, 1:1 Langmuir fit
Method: as §1, §2

[7] = molecular target: T3, recombinant human Ang4 carrier-free …; test: SPR (BIAcore), Ang4 immobilised on CM5, peptide 0.625-0.039 µM, 1:1 Langmuir fit
Method: as §1, §2

[8] = molecular target: T2, recombinant human Ang2 carrier-free …; test: SPR (BIAcore), Ang2 immobilised on CM5
Method: (§3) Peptide-protein binding was analyzed using surface plasmon resonance. Analysis of the to interaction between CGEN-H2 [SEQ ID NO: 1], CGEN-H3 [SEQ ID NO: 2], CGEN-A8 [SEQ ID NO: 3], CGEN-H7 [SEQ ID NO: 4], CGEN-G4 [SEQ ID NO: 5], CGEN-G6 [SEQ ID NO: 6], CGEN-F9 [SEQ ID NO: 7], CGEN-F12 [SEQ ID NO: 8], CGEN-C6 [SEQ ID NO: 9], CGEN-A11 [SEQ ID NO: 10], and CGEN-G2 [SEQ ID NO: 11] peptides and recombinant human Ang1 carrier-free (R&D Systems, Cat#923-AN-025/CF, Lot#FHW1507031), human Ang2 carrier-free (R&D Systems, Cat#623-AN-025/CF, Lot#BNO0457121), and human Ang4 carrier-free (R&D Systems, Cat#964-AN-025/CF, Lot#ELM025121) was conducted using the BIAcore biosensor (Pharmacia Biosensor, Uppsala, Sweden). The recombinant Ang1, Ang2, and Ang4 were immobilized directly to a CM5 sensor chip. Solutions containing 10-50 μM of CGEN-H2 [SEQ ID NO: 1], CGEN-H3 [SEQ ID NO: 2], CGEN-A8 [SEQ ID NO: 3], CGEN-H7 [SEQ ID NO: 4], CGEN-G4 [SEQ ID NO: 5], CGEN-G6 [SEQ ID NO: 6], CGEN-F9 [SEQ ID NO: 7], CGEN-F12 [SEQ ID NO: 8], CGEN-C6 [SEQ ID NO: 9], CGEN-A11 [SEQ ID NO: 10], and CGEN-G2 [SEQ ID NO: 11] peptides were injected into the sample chamber of the BIACORE device at a rate of […] and the interaction was monitored using surface plasmon resonance. […] Binding of CGEN-C6 to Ang2 was not sufficiently strong and too noisy for kinetic measurements or determination of affinity constant.

[9] = molecular target: T3, recombinant human Ang4 carrier-free …; test: SPR (BIAcore), Ang4 immobilised on CM5, peptide 1.25-0.039 µM, 1:1 Langmuir fit
Method: as §1, §2

[10] = molecular target: T1, recombinant human Ang1 carrier-free …; test: SPR (BIAcore), Ang1 immobilised on CM5, peptide 1.25-0.039 µM, 1:1 Langmuir fit
Method: as §1, §2

[11] = molecular target: T2, recombinant human Ang2 carrier-free …; test: SPR (BIAcore), Ang2 immobilised on CM5, peptide 10-50 µM
Method: as §3

[12] = molecular target: T3, recombinant human Ang4 carrier-free …; test: SPR (BIAcore), Ang4 immobilised on CM5 chip, peptide injected
Method: as §3

reduction of Ang1 binding to Tie2 [1] [%]	Kd [2] [nM]	Kd [3] [µM]	Kd [4] [µM]	Kd [5] [nM]	Kd [6] [nM]	Kd [7] [nM]	Binder	also measured
≤ 34	2360	3.69	6.74				Ac-ETFLSTNKLENQ-NH2 (MW 1464.7) [CGEN-A11 (SEQ ID NO: 10)]	
				1.88	5840	0.243	Ac-QHSLRQLLVLLRHLVQERANASA-NH2 (MW 2694.3) [CGEN-F12 (SEQ ID NO: 8)]	
≤ 34							Ac-DLMETVNNLLTMMSTSNSAKD-NH2 (MW 2356.8) [CGEN-G6 (SEQ ID NO: 6)]	binding result [8]: binds; Kd [9]: 22.1 nM; Kd [10]: 13.3 nM
				17.4	56.6	25	Ac-TQQVKQLEQALQNNTQWLKKLERAIKTIL-NH2 [CGEN-G2 (SEQ ID NO: 11)]	
≤ 34	3070	2.82	21.4				Ac-QEELASILSKKAKLLNTLSRQSAALTNIERGLRGVR-NH2 (MW 4006.8) [CGEN-F9 (SEQ ID NO: 7)]	
≤ 34							Ac-TDMEAQLLNQTSRMDAQM-NH2 (MW 2124.5) [CGEN-C6 (SEQ ID NO: 9)]	binding result [11]: binds; binding result [12]: no binding (tested: 10-50 µM)
